According to article PMC10185811:

Tests used:
[1] = molecular target: GST-NUB1L, Q9Y5A7-1; test: Octet (BLI); settings: GST-NUB1L on the sensor; His6-RPN1 variant in solution; parent: est. 0.58; read off a plot
[2] = molecular target: GST-RAD23 (UniProt P54727); test: Octet (BLI); settings: GST-RAD23 on the sensor; GST control curve in the same panel reaches est. 0.21 nm (above the T1 curve); read off a plot
[3] = molecular target: His6-RPN1 WT (human) (UniProt Q13200); test: BLI; Octet; His6-RPN1 loaded on the nickel sensor; NUB1L, GST-FAT10, NUB1L with GST-FAT10 or NUB1L with GST in solution; Octet buffer (PBS, 0.1% Triton X-100, 1x ROTIBlock); 1:1 binding model

Sequence of His6-RPN1 WT (Q13200 whole entry, change not shown): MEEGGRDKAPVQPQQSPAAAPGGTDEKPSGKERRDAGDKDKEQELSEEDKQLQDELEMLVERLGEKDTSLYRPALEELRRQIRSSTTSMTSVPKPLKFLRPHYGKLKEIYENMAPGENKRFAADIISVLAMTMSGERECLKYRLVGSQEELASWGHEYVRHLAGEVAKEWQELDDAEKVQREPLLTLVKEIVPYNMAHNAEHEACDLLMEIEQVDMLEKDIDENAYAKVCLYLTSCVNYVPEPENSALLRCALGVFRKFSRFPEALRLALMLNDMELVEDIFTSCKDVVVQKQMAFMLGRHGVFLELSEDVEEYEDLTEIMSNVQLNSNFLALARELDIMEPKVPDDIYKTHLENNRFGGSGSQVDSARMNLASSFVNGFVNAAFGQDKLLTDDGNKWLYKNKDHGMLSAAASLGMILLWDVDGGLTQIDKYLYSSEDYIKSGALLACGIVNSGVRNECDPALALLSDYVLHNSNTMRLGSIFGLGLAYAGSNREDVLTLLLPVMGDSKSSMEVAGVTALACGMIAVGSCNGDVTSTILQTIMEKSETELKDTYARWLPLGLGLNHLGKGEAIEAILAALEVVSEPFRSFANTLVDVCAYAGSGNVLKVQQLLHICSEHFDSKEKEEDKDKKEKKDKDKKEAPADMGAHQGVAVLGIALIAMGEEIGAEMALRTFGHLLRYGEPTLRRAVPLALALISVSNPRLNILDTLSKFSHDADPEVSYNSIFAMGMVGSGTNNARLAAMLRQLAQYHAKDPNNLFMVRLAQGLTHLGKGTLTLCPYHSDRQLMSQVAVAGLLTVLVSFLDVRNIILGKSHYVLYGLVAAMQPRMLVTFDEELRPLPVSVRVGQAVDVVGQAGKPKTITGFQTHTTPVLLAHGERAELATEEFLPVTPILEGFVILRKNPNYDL
Sequence of GST-RAD23 (P54727 whole entry): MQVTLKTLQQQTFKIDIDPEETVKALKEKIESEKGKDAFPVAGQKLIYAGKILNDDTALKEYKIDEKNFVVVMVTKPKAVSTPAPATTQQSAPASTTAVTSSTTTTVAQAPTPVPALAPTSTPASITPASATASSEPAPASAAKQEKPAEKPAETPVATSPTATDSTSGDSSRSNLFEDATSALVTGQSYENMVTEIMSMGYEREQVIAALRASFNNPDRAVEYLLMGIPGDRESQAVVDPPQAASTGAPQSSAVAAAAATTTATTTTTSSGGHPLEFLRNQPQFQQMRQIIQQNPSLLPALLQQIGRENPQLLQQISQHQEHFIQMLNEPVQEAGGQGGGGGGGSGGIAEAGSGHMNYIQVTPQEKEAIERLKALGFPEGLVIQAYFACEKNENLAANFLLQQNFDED
Sequence of NUB1L-bound GST-FAT10 (NUB1L co-incubated with GST-FAT10) (Q9Y5A7 whole entry): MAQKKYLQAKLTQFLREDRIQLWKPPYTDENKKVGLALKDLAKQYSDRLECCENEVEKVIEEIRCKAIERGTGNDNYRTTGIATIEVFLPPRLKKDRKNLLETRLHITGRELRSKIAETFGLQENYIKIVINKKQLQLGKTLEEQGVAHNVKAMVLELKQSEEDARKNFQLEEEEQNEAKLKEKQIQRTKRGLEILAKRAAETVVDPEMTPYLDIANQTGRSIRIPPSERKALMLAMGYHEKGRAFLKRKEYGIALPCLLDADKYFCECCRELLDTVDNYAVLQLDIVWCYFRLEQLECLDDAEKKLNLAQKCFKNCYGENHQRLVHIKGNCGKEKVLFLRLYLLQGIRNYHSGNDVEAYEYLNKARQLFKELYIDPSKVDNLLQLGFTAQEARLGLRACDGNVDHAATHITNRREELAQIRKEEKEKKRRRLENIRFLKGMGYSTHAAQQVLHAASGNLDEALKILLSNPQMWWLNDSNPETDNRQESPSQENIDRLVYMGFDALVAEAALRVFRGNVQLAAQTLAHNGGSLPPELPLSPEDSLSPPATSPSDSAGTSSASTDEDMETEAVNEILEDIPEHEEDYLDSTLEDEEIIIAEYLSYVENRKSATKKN
Sequence of NUB1L-bound GST-FAT10 (NUB1L co-incubated with GST-FAT10) (O15205 whole entry): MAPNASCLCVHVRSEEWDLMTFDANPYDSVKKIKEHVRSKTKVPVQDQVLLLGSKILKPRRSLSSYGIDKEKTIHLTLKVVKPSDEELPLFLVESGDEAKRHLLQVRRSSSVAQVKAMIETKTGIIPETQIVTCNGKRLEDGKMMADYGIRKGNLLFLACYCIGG
Sequence of GST-NUB1L, Q9Y5A7-1 (Q9Y5A7 whole entry): as the sequence (Q9Y5A7 whole entry) above

response [1] [nm]	response [2] [nm]	fold increase of the affinity for RPN1 against NUB1L alone [3] [fold]	Substance
0.37	0.19	–	His6-RPN1 WT (from UniProt Q13200) T1
–	–	4	NUB1L-bound GST-FAT10 (NUB1L co-incubated with GST-FAT10) (from UniProt Q9Y5A7-1 1-615; O15205 1-165) (complex)
